From article PMC9060481 (2022)
“And” between values parts separate entries of the source, which are not always exact repeats. Identical values can stand only once.

B1: His6-MBP:CtermCNGC15b (domain or fragment)
chain: GNMQTYLQSTTVRLEEWRVKRTDTEQWMHHRQLPQELRQSVRKYDQYKWIATRGVDEESLLRGLPLDLRRDIKRHLCLELVRRVPLFDAMDERMLDAICERLKPALCTENTYLVREGDPVNEMLFIIRGNLDSYTTDGGRTGFFNSCRIGPGDFCGEELLTWALDPRPTMVIPSSTRTVKAISEVEAFALIAEDLKFVASQFRRLHSKQLRNKLRFHSHQWRTWAACFIQVAWRRTIQEKKGSC
B2: His6-MBP:CtermCNGC15a (domain or fragment)
chain: GNMQTYLQSTTIRLEEWRIRRTDTERWMHHRQLPHYLKENVRRHDQFRWVATRGVDEEAILRDLPVDLRRDIKRHLCLNLVRQVPLFDQMDDRMLDAICERLKPTLCTPGTCIVREGDPVDEMLFIVRGRLDSCTTNGGRTGFFNTCRIGSGDFCGEELLPWALDPRPTAVLPSSTRTVRAITEVEAFALIAEDLKFVAAQFRRLHSKQLRQTFRFYSHQWRTWAACFIQAAWFRYKRMKETNEVKEKENLMMMSNVKYYGNDDSQYFSAPLQVPKGSSYSMYSGKLVGSLRRGRSMRYGSELDMLGTLRKPIEPDFNDDGD
B3: His6-MBP:CtermCNGC15c (domain or fragment)
chain: LIGNMQTYLQSITVRLEEWRVKRTDTEQWMHHRQLPPELRESIRKYNQYKWVATRGVEEEDLLKGLPLDLRREIKRHLCLELVRGVPLFDQMDERMLDAICERLKPALCTEGTYLVREGDPVNEMLFIIRGHLDSYTTNGGRDGFFNSCRIGPGDFCGEELLTWALDPRPSVILPSSTRTVKAFSEVEAFALIAEDLKFVASQFRRLHSKQLRHKFRFYSHQWRTWAACFIQAAWRRHKKRKEAAELRAKENLVAASEAENEIAKKYGKGFVVYGTRVARSTRKGVNMHSGTNSGVVSSLQKPTEPDFSDE

Tests used:
[1] = target: T1, calmodulin 2 (CaM2), purified recombinant protein (M. truncatula); experiment: BLI; 20 mM CaCl2
[2] = target: T1, calmodulin 2 (CaM2), purified …; experiment: BLI; 20 mM CaCl2; remark: listed apart in the source
[3] = target: T1, calmodulin 2 (CaM2), purified …; experiment: ITC; 5 mM CaCl2

Binder | Kd [1] | koff [2] | Kd [3]
B1 | 59 µM | 0.43 s⁻¹ | 
B2 | 526 µM | 0.77 s⁻¹ | 
AACFIQVAWRRTIQEKKG [CNGC15b-IQ peptide] |  |  | 1.39 µM
AACFIQAAWRRHKKRKEA [CNGC15c-IQ peptide] |  |  | 0.644 µM and 0.64 µM
B3 | 14.6 µM | 0.077 s⁻¹ | 
